Laboratory results: paper PMC12636033, “Chemical Engineering of Transcription Factors Uncovered Cell-Permeable μMax Modulators”

B1: dBr_Jan07_16923 (dsDNA)
DNA 1: TGGGTCATGCTCGAACAGCGTCACTAGGTAGCACGTGTCTGTGTTCCGTTGTCCGTGCTG
DNA 2: CAGCACGGACAACGGAACACAGACACGTGCTACCTAGTGACGCTGTTCGAGCATGACCCA
B2: dBr_Jan07_03962 (dsDNA)
DNA 1: TGGCCGCCACGTGGCGCTCTGCGGTCACATGTTGGGGTCTGTGTTCCGTTGTCCGTGCTG
DNA 2: CAGCACGGACAACGGAACACAGACCCCAACATGTGACCGCAGAGCGCCACGTGGCGGCCA
B3: dBr_Jan07_16409 (dsDNA)
DNA 1: CGTTACTGGTGCACGTGTTCTCCTCTCCACCTTCAGGTCTGTGTTCCGTTGTCCGTGCTG
DNA 2: CAGCACGGACAACGGAACACAGACCTGAAGGTGGAGAGGAGAACACGTGCACCAGTAACG
B4: dBr_Jan07_11943 (dsDNA)
DNA 1: GGGCCGGTAAACGGACTGGTACGATGAAGCGCACGTGTCTGTGTTCCGTTGTCCGTGCTG
DNA 2: CAGCACGGACAACGGAACACAGACACGTGCGCTTCATCGTACCAGTCCGTTTACCGGCCC
B5: dBr_Jan07_07176 (dsDNA)
DNA 1: TATGCGTTGGCCATCTTAATTCCACGTGGTGTCCTCGTCTGTGTTCCGTTGTCCGTGCTG
DNA 2: CAGCACGGACAACGGAACACAGACGAGGACACCACGTGGAATTAAGATGGCCAACGCATA
B6: dBr_Jan07_12609 (dsDNA)
DNA 1: TGATAAGGATCTACTTCAAGAGCACGTGTCATCTATGTCTGTGTTCCGTTGTCCGTGCTG
DNA 2: CAGCACGGACAACGGAACACAGACATAGATGACACGTGCTCTTGAAGTAGATCCTTATCA
B7: dBr_Jan07_19752 (dsDNA)
DNA 1: TAAGCTTCGGTTCTCGTTCGGTACAACACGTGTATGGTCTGTGTTCCGTTGTCCGTGCTG
DNA 2: CAGCACGGACAACGGAACACAGACCATACACGTGTTGTACCGAACGAGAACCGAAGCTTA
B8: dBr_Jan07_03225 (dsDNA)
DNA 1: TTCTATCCCTAATCTCCGCGTGGCTACCCCTTCAAGGTCTGTGTTCCGTTGTCCGTGCTG
DNA 2: CAGCACGGACAACGGAACACAGACCTTGAAGGGGTAGCCACGCGGAGATTAGGGATAGAA
B9: dBr_Jan07_00940 (dsDNA)
DNA 1: GGATATGGCCCTCCCTACGAACACGTGGAGTTAGGCGTCTGTGTTCCGTTGTCCGTGCTG
DNA 2: CAGCACGGACAACGGAACACAGACGCCTAACTCCACGTGTTCGTAGGGAGGGCCATATCC
B10: dBr_Jan07_34584 (dsDNA)
DNA 1: ATTGCCGCACCTGATGCATCGCCACGTGTTATAATCGTCTGTGTTCCGTTGTCCGTGCTG
DNA 2: CAGCACGGACAACGGAACACAGACGATTATAACACGTGGCGATGCATCAGGTGCGGCAAT
B11: dBr_Jan07_39019 (dsDNA)
DNA 1: TCCTTCCCGACGGACAGTGCAATCTGATTATCACGTGTCTGTGTTCCGTTGTCCGTGCTG
DNA 2: CAGCACGGACAACGGAACACAGACACGTGATAATCAGATTGCACTGTCCGTCGGGAAGGA
B12: dBr_Jan07_27092 (dsDNA)
DNA 1: GTTTAGAGGCTGTTTGCTGTCGCCCTACAACCACGTGTCTGTGTTCCGTTGTCCGTGCTG
DNA 2: CAGCACGGACAACGGAACACAGACACGTGGTTGTAGGGCGACAGCAAACAGCCTCTAAAC
B13: dBr_Jan07_09790 (dsDNA)
DNA 1: ATTCTAATGATTGCGTATACACGTGTCTTGAATTGGGTCTGTGTTCCGTTGTCCGTGCTG
DNA 2: CAGCACGGACAACGGAACACAGACCCAATTCAAGACACGTGTATACGCAATCATTAGAAT
B14: dBr_Jan07_07207 (dsDNA)
DNA 1: TCAGCCGCGTGGCACAATGTCCACAGGTAGGGTACAGTCTGTGTTCCGTTGTCCGTGCTG
DNA 2: CAGCACGGACAACGGAACACAGACTGTACCCTACCTGTGGACATTGTGCCACGCGGCTGA
B15: dBr_Jan07_35732 (dsDNA)
DNA 1: TAGTTGTATCTTGATCGCCGATTCCCCATGCCACGTGTCTGTGTTCCGTTGTCCGTGCTG
DNA 2: CAGCACGGACAACGGAACACAGACACGTGGCATGGGGAATCGGCGATCAAGATACAACTA
B16: dBr_Jan07_01937 (dsDNA)
DNA 1: AGCTTTTTATCTCTGTGGGCGGGTAACAACCATGTGGTCTGTGTTCCGTTGTCCGTGCTG
DNA 2: CAGCACGGACAACGGAACACAGACCACATGGTTGTTACCCGCCCACAGAGATAAAAAGCT
B17: dBr_Jan07_16225 (dsDNA)
DNA 1: ACATTCCTAGCTATTACTTGGTAGCTCTCAGCACGTGTCTGTGTTCCGTTGTCCGTGCTG
DNA 2: CAGCACGGACAACGGAACACAGACACGTGCTGAGAGCTACCAAGTAATAGCTAGGAATGT
B18: dBr_Jan07_28790 (dsDNA)
DNA 1: CTATTCCGATGCCATAAAACTTTCCACTCCACGTGTGTCTGTGTTCCGTTGTCCGTGCTG
DNA 2: CAGCACGGACAACGGAACACAGACACACGTGGAGTGGAAAGTTTTATGGCATCGGAATAG
B19: dBr_Jan07_32554 (dsDNA)
DNA 1: CGACGTTGTCTGACGAATAATGCCGAGCGGACACGTGTCTGTGTTCCGTTGTCCGTGCTG
DNA 2: CAGCACGGACAACGGAACACAGACACGTGTCCGCTCGGCATTATTCGTCAGACAACGTCG
B20: dBr_Jan07_13408 (dsDNA)
DNA 1: CCGCGCGCAGGCACTTAGGGTACCTGCTGTCCACGTGTCTGTGTTCCGTTGTCCGTGCTG
DNA 2: CAGCACGGACAACGGAACACAGACACGTGGACAGCAGGTACCCTAAGTGCCTGCGCGCGG
B21: dBr_Jan07_25672 (dsDNA)
DNA 1: TCACGCACCCCGCAAGCGCAACCACGTGGTAAGGGTGTCTGTGTTCCGTTGTCCGTGCTG
DNA 2: CAGCACGGACAACGGAACACAGACACCCTTACCACGTGGTTGCGCTTGCGGGGTGCGTGA
B22: dBr_Jan07_01481 (dsDNA)
DNA 1: CCGCCAGCATTTCCTGCTTTGCACGTGTAAGATACCGTCTGTGTTCCGTTGTCCGTGCTG
DNA 2: CAGCACGGACAACGGAACACAGACGGTATCTTACACGTGCAAAGCAGGAAATGCTGGCGG
B23: dBr_Jan07_18904 (dsDNA)
DNA 1: CCCGGATAATATTTCGGCTTCAAGAATCACGTGGAAGTCTGTGTTCCGTTGTCCGTGCTG
DNA 2: CAGCACGGACAACGGAACACAGACTTCCACGTGATTCTTGAAGCCGAAATATTATCCGGG
B24: dBr_Jan07_03400 (dsDNA)
DNA 1: ACGTCGGCTATGATTTCACGCTATTCTAAGACACGTGTCTGTGTTCCGTTGTCCGTGCTG
DNA 2: CAGCACGGACAACGGAACACAGACACGTGTCTTAGAATAGCGTGAAATCATAGCCGACGT
B25: dBr_Jan07_39189 (dsDNA)
DNA 1: GGCTTGCATTGTTGGGCCCACGTGTTGATTGTCTAAGTCTGTGTTCCGTTGTCCGTGCTG
DNA 2: CAGCACGGACAACGGAACACAGACTTAGACAATCAACACGTGGGCCCAACAATGCAAGCC
B26: dBr_Jan07_36232 (dsDNA)
DNA 1: CCATGCCAACTAGGCGCACGTGATTGTTCGAGAACTGTCTGTGTTCCGTTGTCCGTGCTG
DNA 2: CAGCACGGACAACGGAACACAGACAGTTCTCGAACAATCACGTGCGCCTAGTTGGCATGG
B27: dBr_Jan07_01836 (dsDNA)
DNA 1: GTCGAGAATCCAATACGCCACGTGCATACGTACGTCGTCTGTGTTCCGTTGTCCGTGCTG
DNA 2: CAGCACGGACAACGGAACACAGACGACGTACGTATGCACGTGGCGTATTGGATTCTCGAC
B28: dBr_Jan07_23881 (dsDNA)
DNA 1: CATATTAGACCGGCGTATACGCACGTGGCGTAGATTGTCTGTGTTCCGTTGTCCGTGCTG
DNA 2: CAGCACGGACAACGGAACACAGACAATCTACGCCACGTGCGTATACGCCGGTCTAATATG
B29: dBr_Jan07_25426 (dsDNA)
DNA 1: TCTCTGTGCGGCGGGGTCCATAGCACGCACGTGTTAGTCTGTGTTCCGTTGTCCGTGCTG
DNA 2: CAGCACGGACAACGGAACACAGACTAACACGTGCGTGCTATGGACCCCGCCGCACAGAGA
B30: dBr_Jan07_20372 (dsDNA)
DNA 1: TCGTTTGTACACGTGGGTTTGCAAGAGTAAGTGTCCGTCTGTGTTCCGTTGTCCGTGCTG
DNA 2: CAGCACGGACAACGGAACACAGACGGACACTTACTCTTGCAAACCCACGTGTACAAACGA
B31: dBr_Jan07_32059 (dsDNA)
DNA 1: CCGGTCACTGCCGGTGATGCCCTGCTTTATCACGTGGTCTGTGTTCCGTTGTCCGTGCTG
DNA 2: CAGCACGGACAACGGAACACAGACCACGTGATAAAGCAGGGCATCACCGGCAGTGACCGG
B32: dBr_Jan07_16170 (dsDNA)
DNA 1: TACTAGATTACTACAGACGTTTGCGATCACGTGCATGTCTGTGTTCCGTTGTCCGTGCTG
DNA 2: CAGCACGGACAACGGAACACAGACATGCACGTGATCGCAAACGTCTGTAGTAATCTAGTA
B33: dBr_Jan07_08390 (dsDNA)
DNA 1: GTATTGTTGCGTATGTCACGTGGTACAAAACCCAGGGTCTGTGTTCCGTTGTCCGTGCTG
DNA 2: CAGCACGGACAACGGAACACAGACCCTGGGTTTTGTACCACGTGACATACGCAACAATAC

target: WT Max (Homo sapiens, UniProt P61244-2 13-93, M65Nle, norleucine written as M; other non-natural residues written as X); test: PBM; 50-200 nM protein; PBS, 2% milk, BSA, salmon testes DNA, 0.02% Triton X-100; settings: chain copies: 2; label: surface-attached array probe
Sequence (P61244 other isoform, or with tags, fused parts or gaps M65Nle): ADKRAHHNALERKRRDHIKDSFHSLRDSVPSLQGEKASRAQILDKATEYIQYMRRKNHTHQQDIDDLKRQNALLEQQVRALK

Binder | binding signal
B1 | 4.47 robust z of log adjusted intensity (ours), mean of two arrays
B2 | 4.57 robust z of log adjusted intensity (ours), mean of two arrays
B3 | 4.95 robust z of log adjusted intensity (ours), mean of two arrays
B4 | 4.72 robust z of log adjusted intensity (ours), mean of two arrays
B5 | 4.6 robust z of log adjusted intensity (ours), mean of two arrays
B6 | 4.35 robust z of log adjusted intensity (ours), mean of two arrays
B7 | 4.26 robust z of log adjusted intensity (ours), mean of two arrays
B8 | 4.25 robust z of log adjusted intensity (ours), mean of two arrays
B9 | 4.33 robust z of log adjusted intensity (ours), mean of two arrays
B10 | 6.19 robust z of log adjusted intensity (ours), mean of two arrays
B11 | 4.91 robust z of log adjusted intensity (ours), mean of two arrays
B12 | 4.94 robust z of log adjusted intensity (ours), mean of two arrays
B13 | 4.37 robust z of log adjusted intensity (ours), mean of two arrays
B14 | 5.41 robust z of log adjusted intensity (ours), mean of two arrays
B15 | 4.37 robust z of log adjusted intensity (ours), mean of two arrays
B16 | 4.33 robust z of log adjusted intensity (ours), mean of two arrays
B17 | 4.26 robust z of log adjusted intensity (ours), mean of two arrays

Binder | binding signal
B18 | 4.91 robust z of log adjusted intensity (ours), mean of two arrays
B19 | 4.1 robust z of log adjusted intensity (ours), mean of two arrays
B20 | 4.13 robust z of log adjusted intensity (ours), mean of two arrays
B21 | 6.01 robust z of log adjusted intensity (ours), mean of two arrays
B22 | 4.74 robust z of log adjusted intensity (ours), mean of two arrays
B23 | 4.33 robust z of log adjusted intensity (ours), mean of two arrays
B24 | 4.73 robust z of log adjusted intensity (ours), mean of two arrays
B25 | 4.2 robust z of log adjusted intensity (ours), mean of two arrays
B26 | 4.03 robust z of log adjusted intensity (ours), mean of two arrays
B27 | 3.94 robust z of log adjusted intensity (ours), mean of two arrays
B28 | 4.35 robust z of log adjusted intensity (ours), mean of two arrays
B29 | 4.48 robust z of log adjusted intensity (ours), mean of two arrays
B30 | 4.3 robust z of log adjusted intensity (ours), mean of two arrays
B31 | 4.08 robust z of log adjusted intensity (ours), mean of two arrays
B32 | 5.85 robust z of log adjusted intensity (ours), mean of two arrays
B33 | 4.12 robust z of log adjusted intensity (ours), mean of two arrays
